The series concerns the molecule itself. Nature of the series: SAXS with online size exclusion. (In gel filtration, larger molecules generally elute earlier.)

B1: ELF3 PrLD Q7 (prion-like domain of EARLY FLOWERING 3, residues 388-625, 7 glutamines, ecotype Columbia) (domain or fragment)
chain: LLPSEFLVKPPLPHVVVKQRGDSEKTDQHKMESSAENVVGRLSNQGHHQQSNYMPFANNPPASPAPNGYCFPPQPPPSGNHQQWLIPVMSPSEGLIYKPHPGMAHTGHYGGYYGHYMPTPMVMPQYHPGMGFPPPGNGYFPPYGMMPTIMNPYCSSQQQQQQQPNEQMNQFGHPGNLQNTQQQQQRSDNEPAPQQQQQPTKSYPRARKSRQGSTGSSPSGPQGISGSKSFRPFAAVDE
Turning to B1, the binding result is reported as “binds”.

The values above are taken from paper doi:10.1101/2023.03.12.532276 (bioRxiv, 2023).
